In paper PMC11001878, “Engineering an artificial catch bond using mechanical anisotropy” (Nature Communications, 2024):

Tests used:
[1] = target: DocG-FLN-ELP-ybbr (Ruminococcus champanellensis); assay: AFM single-molecule force spectroscopy; constant pulling speed (100, 400, 800, 3200 nm/s); both partners tethered through ybbr tags, CohE on the cantilever and DocG on the glass; dwell 200 ms; TBS Ca buffer (25 mM Tris, 72 mM NaCl, 1 mM CaCl2, pH 7.2); zero-force off rate k0 from a Bell-Evans fit, one for each unbinding pathway
[2] = target: ybbr-ELP-FLN-DocG (Ruminococcus champanellensis); assay: as above
[3] = target: T1, DocG A77C mutant protein labeled with Cy3b (Ruminococcus champanellensis, A77C, Cy3b (maleimide-conjugated) on the cysteine at 77); assay: MST; 20 nM Cy3b-labelled DocG A77C mixed with a series of CohE, 16 samples, 0.0763 nM to 2.5 µM; Nanotemper Monolith NT.115; conditions: both partners purified
T1 chain: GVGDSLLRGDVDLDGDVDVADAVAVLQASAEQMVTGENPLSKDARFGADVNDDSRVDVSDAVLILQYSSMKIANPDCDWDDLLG

For CohE-FLN-ELP-ybbr (domain or fragment), which log(k0), high force pathway [1] is on record?
The log(k0), high force pathway was -7.

What about the log(k0), low force pathway [1] of the same molecule?
Its log(k0), low force pathway is -31.

What about the log(k0), high force pathway [2] of the same molecule?
The log(k0), high force pathway was -7.

What about the log(k0), low force pathway [2] of the same molecule?
Its log(k0), low force pathway is -9.

For ybbr-ELP-FLN-CohE (domain or fragment), which log(k0), single pathway [2] is on record?
The log(k0), single pathway was -4.2.

B1: CohE wild-type (domain or fragment)
chain: LSMDQKFAEPGETVEIALNLENFDASWTGLEFLVNYDPKLEVALDGAGDIDYSYGDAIGAMGKKISVGGAISKDLTADGLKGFAFAWGTATAISGNGQLGVFKFTVPADAQPGDEFPVNLTVNVGSFIDANKENIPFETVNGWIKI
For B1, which Kd [3] is on record?
The Kd was 14 ± 4 nM.

B2: CohE F13AzF-Fgβ (domain or fragment)
chain 1: LSMDQKFAEPGETVEIALNLENFDASWTGLEFLVNYDPKLEVALDGAGDIDYSYGDAIGAMGKKISVGGAISKDLTADGLKGFAFAWGTATAISGNGQLGVFKFTVPADAQPGDEFPVNLTVNVGSFIDANKENIPFETVNGWIKI
chain 2: NEEGFFSARGHRPLDGSWSHPQFEKGSGSC
modifications: azido-phenylalanine (AzF) at 13, covalently conjugated by the azide-DBCO click reaction with the Fgβ-StrepTag-DBCO peptide | C-terminal cysteine bearing DBCO, linked to the azide of AzF13 of the CohE chain
With B2 as the molecule, how does the Kd [3] read?
The Kd was 40 ± 8 nM.

B3: CohE K87AzF-Fgβ (domain or fragment)
chain 1: LSMDQKFAEPGETVEIALNLENFDASWTGLEFLVNYDPKLEVALDGAGDIDYSYGDAIGAMGKKISVGGAISKDLTADGLKGFAFAWGTATAISGNGQLGVFKFTVPADAQPGDEFPVNLTVNVGSFIDANKENIPFETVNGWIKI
chain 2: NEEGFFSARGHRPLDGSWSHPQFEKGSGSC
modifications: azido-phenylalanine (AzF) at 87, covalently conjugated by the azide-DBCO click reaction with the Fgβ-StrepTag-DBCO peptide | C-terminal cysteine bearing DBCO, linked to the azide of AzF87 of the CohE chain
Which Kd [3] does the source give for B3 here?
Its Kd is 19 ± 10 nM.
